In publication PMC3668167, “Ski-interacting protein (SKIP) interacts with androgen receptor in the nucleus and modulates androgen-dependent transcription” (BMC Biochemistry, 2013):

T1: GAL4 DNA binding domain fusion of AR-LBD residues 642-917 (pM-GAL4DBD-AR642-917) (human, UniProt P10275 642-917)
T1 sequence (looked up): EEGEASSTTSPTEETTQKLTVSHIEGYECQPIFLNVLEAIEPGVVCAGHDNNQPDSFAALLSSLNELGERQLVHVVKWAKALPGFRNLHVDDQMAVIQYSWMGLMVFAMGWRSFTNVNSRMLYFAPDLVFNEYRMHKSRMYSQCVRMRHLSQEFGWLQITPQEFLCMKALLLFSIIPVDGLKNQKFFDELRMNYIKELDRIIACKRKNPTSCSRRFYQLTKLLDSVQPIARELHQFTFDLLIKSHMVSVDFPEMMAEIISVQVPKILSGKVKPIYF

T2: GAL4 DNA binding domain fusion of the AR AF-1 fragment, residues 1-555 (pM-GAL4DBD-AR-AF1) (human, UniProt P10275 1-555)
T2 sequence (looked up): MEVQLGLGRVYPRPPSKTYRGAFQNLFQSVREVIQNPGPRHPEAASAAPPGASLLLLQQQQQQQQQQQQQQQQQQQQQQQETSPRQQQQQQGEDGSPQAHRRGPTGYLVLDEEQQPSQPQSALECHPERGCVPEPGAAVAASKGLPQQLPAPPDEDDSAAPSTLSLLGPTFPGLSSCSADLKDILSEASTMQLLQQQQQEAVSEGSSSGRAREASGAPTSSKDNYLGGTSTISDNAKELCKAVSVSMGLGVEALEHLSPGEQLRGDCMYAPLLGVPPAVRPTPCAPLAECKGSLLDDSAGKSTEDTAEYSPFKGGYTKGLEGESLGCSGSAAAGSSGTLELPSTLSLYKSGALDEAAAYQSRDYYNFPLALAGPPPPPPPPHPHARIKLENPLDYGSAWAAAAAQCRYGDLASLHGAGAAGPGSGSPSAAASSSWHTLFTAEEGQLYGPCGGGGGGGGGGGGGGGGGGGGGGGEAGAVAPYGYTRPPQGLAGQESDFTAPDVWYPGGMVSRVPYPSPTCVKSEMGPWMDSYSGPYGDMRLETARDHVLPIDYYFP


Assays:
[1] = biological target: T1, GAL4 DNA binding domain fusion of …; assay: cell-based or functional assay
[2] = biological target: T2, GAL4 DNA binding domain fusion of the …; assay: cell-based or functional assay
[3] = biological target: T1, GAL4 DNA binding domain fusion of …; assay: two-hybrid; mammalian two-hybrid in HEK293 cells, GAL4(5)E1bTATA-luciferase reporter, GAL4DBD-AR642-917 with pVP16-AR1-538, empty pCGN (no SKIP), 1 nM DHT; activity relative to empty vectors without DHT; conditions: partners not purified
[4] = biological target: T1, GAL4 DNA binding domain fusion of …; assay: two-hybrid; mammalian two-hybrid in HEK293 cells, GAL4(5)E1bTATA-luciferase reporter, GAL4DBD-AR642-917 with pVP16-AR1-538, SKIP-pCGN co-expressed, 1 nM DHT; activity relative to empty vectors without DHT; conditions: partners not purified

| Binder | GAL4 luciferase reporter in HEK293 cells: ligand-dependent (1 nM DHT) activation of the AR-LBD 642-917 construct with overexpressed SKIP (Figure 2 column 7) [1] [fold] | mammalian one-hybrid luciferase reporter in HEK293 cells: AR-AF-1 (GAL4DBD-AR1-555) ligand-independent transcriptional activity with overexpressed SKIP against without SKIP [2] [fold] | relative luciferase activity, fold over control [3] [fold] | relative luciferase activity, fold over control (SKIP co-expressed) [4] [fold] |
| --- | --- | --- | --- | --- |
| HA-tagged Ski-interacting protein (SKIP-pCGN) (natural protein, human, UniProt Q13573 1-536, looked up) MALTSFLPAPTQLSQDQLEAEEKARSQRSRQTSLVSSRREPPPYGYRKGWIPRLLEDFGDGGAFPEIHVAQYPLDMGRKKKMSNALAIQVDSEGKIKYDAIARQGQSKDKVIYSKYTDLVPKEVMNADDPDLQRPDEEAIKEITEKTRVALEKSVSQKVAAAMPVRAADKLAPAQYIRYTPSQQGVAFNSGAKQRVIRMVEMQKDPMEPPRFKINKKIPRGPPSPPAPVMHSPSRKMTVKEQQEWKIPPCISNWKNAKGYTIPLDKRLAADGRGLQTVHINENFAKLAEALYIADRKAREAVEMRAQVERKMAQKEKEKHEEKLREMAQKARERRAGIKTHVEKEDGEARERDEIRHDRRKERQHDRNLSRAAPDKRSKLQRNENRDISEVIALGVPNPRTSNEVQYDQRLFNQSKGMDSGFAGGEDEIYNVYDQAWRGGKDMAQSIYRPSKNLDKDMYGDDLEARIKTNRFVPDKEFSGSDRRQRGREGPVQFEEDPFGLDKFLEEAKQHGGSKRPSDSSRPKEHEHEGKKRRKE | 9 | ~5 | – | – |
| VP16 activation domain fusion of AR residues 1-538 (pVP16-AR1-538) (domain or fragment, human, UniProt P10275 1-538, looked up, androgen receptor, human, N-terminal residues 1-538; also called AR N-terminus; source: HEK293, transfected, mammalian two-hybrid fusion) MEVQLGLGRVYPRPPSKTYRGAFQNLFQSVREVIQNPGPRHPEAASAAPPGASLLLLQQQQQQQQQQQQQQQQQQQQQQQETSPRQQQQQQGEDGSPQAHRRGPTGYLVLDEEQQPSQPQSALECHPERGCVPEPGAAVAASKGLPQQLPAPPDEDDSAAPSTLSLLGPTFPGLSSCSADLKDILSEASTMQLLQQQQQEAVSEGSSSGRAREASGAPTSSKDNYLGGTSTISDNAKELCKAVSVSMGLGVEALEHLSPGEQLRGDCMYAPLLGVPPAVRPTPCAPLAECKGSLLDDSAGKSTEDTAEYSPFKGGYTKGLEGESLGCSGSAAAGSSGTLELPSTLSLYKSGALDEAAAYQSRDYYNFPLALAGPPPPPPPPHPHARIKLENPLDYGSAWAAAAAQCRYGDLASLHGAGAAGPGSGSPSAAASSSWHTLFTAEEGQLYGPCGGGGGGGGGGGGGGGGGGGGGGGEAGAVAPYGYTRPPQGLAGQESDFTAPDVWYPGGMVSRVPYPSPTCVKSEMGPWMDSYSGPYGDM | – | – | 12 | ~300 |
